Results published in PMC7655957, “A tunable LIC1-adaptor interaction modulates dynein activity in a cargo-specific manner” (Nature Communications, 2020).

B1: NIN_(1–87), first EF-hand pair of Ninein (domain or fragment, human, UniProt Q8N4C6-1 1-87, looked up)
chain: MDEVEQDQHEARLKELFDSFDTTGTGSLGQEELTDLCHMLSLEEVAPVLQQTLLQDNLLGRVHFDQFKEALILILSRTLSNEEHFQE
notes: NIN (Ninein), human, UniProt Q8N4C6-1, residues 1-87 (EF-hand pair); Cloned into pMAL-c2X
B2: FIP3_(206–270), EF-hand pair of Rab11 family-interacting protein 3 (domain or fragment, human, UniProt O75154-1 206-270, looked up)
chain: RLRAVFDALDGDGDGFVRIEDFIQFATVYGAEQVKDLTKYLDPSGLGVISFEDFYQGITAIRNGD
notes: Cloned into pMAL-c2X
B3: MBP-CRACR2a_(47–122), EF-hand pair of calcium release-activated calcium channel regulator 2A (domain or fragment, human, UniProt Q9BSW2-1 47-122, looked up)
chain: GQLVMLRKAQEFFQTCDAEGKGFIARKDMQRLHKELPLSLEELEDVFDALDADGNGYLTPQEFTTGFSHFFFSQNN
notes: Cloned into pMAL-c2X; the MBP tag was not removed for the ITC experiments; also called Ca^2+-CRACR2a; not shown: MBP, N-terminal, kept

Tests used:
Conditions in all cases: both partners purified
[1] = target: B2; test: ITC; EF-hand pairs titrated into LIC1_(433–458); 20 mM HEPES (pH 7.5), 100 mM NaCl, 0.5 mM TCEP; 5 mM CaCl2 or 5 mM EGTA as indicated in the figure; 20 or 30 °C
[2] = target: B1; test: as above
[3] = target: B3; test: as above
[4] = target: T1, MBP-LIC1FL, full-length dynein light intermediate chain-1 (human, UniProt Q9Y6G9 1-523); test: ITC; EF-hand pairs titrated into MBP-LIC1FL; 20 mM HEPES (pH 7.5), 100 mM NaCl, 0.5 mM TCEP, 5 mM CaCl2; 20 or 30 °C
T1 construct: cytoplasmic dynein-1 light intermediate chain-1 (LIC1), human, full length; also called MBP-LICFL; full-length LIC1
T1 sequence (Q9Y6G9 whole entry): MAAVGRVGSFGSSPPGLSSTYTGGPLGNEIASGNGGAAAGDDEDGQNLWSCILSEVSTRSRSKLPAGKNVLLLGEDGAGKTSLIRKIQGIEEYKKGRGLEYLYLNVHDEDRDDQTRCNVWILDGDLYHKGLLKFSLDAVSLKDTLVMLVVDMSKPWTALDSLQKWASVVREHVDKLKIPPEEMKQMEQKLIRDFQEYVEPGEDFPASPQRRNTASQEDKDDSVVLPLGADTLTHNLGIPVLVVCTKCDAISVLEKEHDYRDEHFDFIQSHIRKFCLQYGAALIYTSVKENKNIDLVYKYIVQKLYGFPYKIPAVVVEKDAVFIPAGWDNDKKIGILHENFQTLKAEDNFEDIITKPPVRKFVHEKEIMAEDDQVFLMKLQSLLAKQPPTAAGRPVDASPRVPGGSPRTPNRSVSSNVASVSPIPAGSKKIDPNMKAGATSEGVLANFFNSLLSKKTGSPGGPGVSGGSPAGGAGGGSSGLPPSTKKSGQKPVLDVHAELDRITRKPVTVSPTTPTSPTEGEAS

Kd [1] [nM]	Kd [2] [µM]	Kd [3] [nM]	Kd [4] [µM]	stoichiometry N [4]	Binder
~2000	~5.4	~1400	–	–	NMKAGATSEGVLANFFNSLLSKKTGS (peptide, UniProt Q9Y6G9 433-458, looked up, Its concentration was determined with fluorescamine-labeled peptide; also called LIC1 helix; source: peptide after reverse-phase purification) [LIC1_(433–458), amphipathic helix of the dynein light intermediate chain-1]
–	–	–	~12	~1	B1
–	–	–	~6.1	~1	B2
–	–	–	~3.6	~1	B3
